Data as given in paper PMC4909201 (2016).
Non-standard residues stand in square brackets, D forms with d. No end group written: not given here. *: point of attachment. Biotin = O=C1N[C@H]2[C@H](CS[C@H]2CCCCC(=O)*)N1; pY = N[C@@H](Cc1ccc(OP(=O)(O)O)cc1)C(=O)O

Biological target: thrombin (Homo sapiens, UniProt P00734)
Experiment: SPR

- Kd: 229 nM
B1: GpIbα269-286ppp (peptide)
chain: Biotin-DEGDTDL[pY]D[pY][pY]PEEDTEG
